Bridges are numbered along the chain shown (N, C = ends). Where no end group is shown, it is not given here. code n = not defined here
B1: HA (peptide)
peptide: EVRSFCTDWPAEKSCKPLRG
modifications: not fully specified (bridges); printed as Glu-Val-Arg-Ser-Phe-Cys-Thr-Asp-Trp-Pro-Ala-Glu-Lys-Ser-Cys-Lys-Pro-Leu-Arg-Gly; cysteine pairing not given here
notes: phage clone selected on human SA
B2: HB (peptide)
peptide: RAPESFVCYWETICFERSEQ
modifications: not fully specified (bridges); printed as Arg-Ala-Pro-Glu-Ser-Phe-Val-Cys-Tyr-Trp-Glu-Thr-Ile-Cys-Phe-Glu-Arg-Ser-Glu-Gln; cysteine pairing not given here
notes: as for B1
B3: HC (peptide)
peptide: EMCYFPGICWM
modifications: not fully specified (bridges); printed as Glu-Met-Cys-Tyr-Phe-Pro-Gly-Ile-Cys-Trp-Met; cysteine pairing not given here
notes: as for B1
B4: SA04 (peptide)
peptide: DICLPRWGCLW-{code n}
modifications: disulfide 3-9 (inferred); reading uncertain; also: printed as Asp-Ile-Cys-Leu-Pro-Arg-Trp-Gly-Cys-Leu-Trp
notes: synthesized peptide
B5: SA07 (peptide)
peptide: QGLIGDICLPRWGCLWGDSV-{code n}
modifications: disulfide 8-14 (inferred); reading uncertain; also: printed as Gln-Gly-Leu-Ile-Gly-Asp-Ile-Cys-Leu-Pro-Arg-Trp-Gly-Cys-Leu-Trp-Gly-Asp-Ser-Val
notes: synthesized peptide
B6: SA11 (peptide)
peptide: Ac-MEDICLPRWGCLWEDD-{code n}
modifications: disulfide 5-11 (inferred); reading uncertain; also: printed as Met-Glu-Asp-Ile-Cys-Leu-Pro-Arg-Trp-Gly-Cys-Leu-Trp-Glu-Asp-Asp
notes: synthesized peptide
B7: SA09 (peptide)
peptide: Ac-EDICLPRWGCLWEDD-{code n}
modifications: disulfide 4-10 (inferred); reading uncertain; also: printed as Glu-Asp-Ile-Cys-Leu-Pro-Arg-Trp-Gly-Cys-Leu-Trp-Glu-Asp-Asp
notes: synthesized peptide
B8: SA05 (peptide)
peptide: MEDICLPRWGCLWED-{code n}
modifications: disulfide 5-11 (inferred); reading uncertain; also: printed as Met-Glu-Asp-Ile-Cys-Leu-Pro-Arg-Trp-Gly-Cys-Leu-Trp-Glu-Asp
notes: synthesized peptide
B9: SA12 (peptide)
peptide: Ac-MEDICLPRWGCLWED-{code n}
modifications: disulfide 5-11 (inferred); reading uncertain; also: printed as Met-Glu-Asp-Ile-Cys-Leu-Pro-Arg-Trp-Gly-Cys-Leu-Trp-Glu-Asp
notes: synthesized peptide

Each binder was assayed against T1, rat albumin (rat, UniProt P02770 25-608) (assay: phage ELISA).
Procedure: (§1) Phage ELISA—Phage clones (˜10¹¹ phage) were added to plates coated with rat, rabbit or human albumin. The microtiter plate was washed with wash buffer and bound phage were detected with HRP/Anti-M13 Conjugate. The amount of HRP bound was measured using ABTS/H₂O₂ substrate and monitoring the change at 405 nm.
(§2) This was tested using a phage ELISA.

T1 sequence (P02770 25-608 limits assumed): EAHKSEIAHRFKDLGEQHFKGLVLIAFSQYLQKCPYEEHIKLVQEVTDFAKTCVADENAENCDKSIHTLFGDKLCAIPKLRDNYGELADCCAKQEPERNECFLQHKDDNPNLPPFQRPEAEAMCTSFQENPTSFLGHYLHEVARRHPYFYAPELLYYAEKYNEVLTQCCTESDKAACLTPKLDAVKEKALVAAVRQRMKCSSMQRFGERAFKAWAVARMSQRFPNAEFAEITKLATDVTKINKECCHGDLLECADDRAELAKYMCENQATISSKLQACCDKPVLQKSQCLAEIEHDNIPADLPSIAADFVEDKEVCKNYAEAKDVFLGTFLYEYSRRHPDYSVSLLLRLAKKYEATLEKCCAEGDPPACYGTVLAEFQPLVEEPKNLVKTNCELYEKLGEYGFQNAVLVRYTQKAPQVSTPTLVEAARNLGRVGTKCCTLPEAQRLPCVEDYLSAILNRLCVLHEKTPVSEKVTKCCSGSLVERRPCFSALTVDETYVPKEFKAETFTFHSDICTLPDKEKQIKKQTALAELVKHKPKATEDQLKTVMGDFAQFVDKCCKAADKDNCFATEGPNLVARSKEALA

**Q.** Does B1 bind?
**A.** no binding

**Q.** Does B2 bind?
**A.** binds

**Q.** Does KSCSELHWLLVEECLF (phage clone selected on rabbit SA) [BD] bind?
**A.** no binding

**Q.** Does B3 bind?
**A.** binds

**Q.** Does MDELAFYCGIWECLMHQEQK (phage clone selected on rabbit SA) [BB] bind?
**A.** no binding

**Q.** Does DLCDVDFCWF (phage clone selected on rabbit SA) [BC] bind?
**A.** no binding

**Q.** Does GENWCDSTLMAYDLCGQVNM (phage clone selected on rabbit SA) [BA] bind?
**A.** no binding

The binders below were run against T2, rabbit albumin (rabbit, UniProt P49065 25-608) (assay: phage ELISA).
Procedure: as §1, §2

T2 sequence (P49065 25-608 limits assumed): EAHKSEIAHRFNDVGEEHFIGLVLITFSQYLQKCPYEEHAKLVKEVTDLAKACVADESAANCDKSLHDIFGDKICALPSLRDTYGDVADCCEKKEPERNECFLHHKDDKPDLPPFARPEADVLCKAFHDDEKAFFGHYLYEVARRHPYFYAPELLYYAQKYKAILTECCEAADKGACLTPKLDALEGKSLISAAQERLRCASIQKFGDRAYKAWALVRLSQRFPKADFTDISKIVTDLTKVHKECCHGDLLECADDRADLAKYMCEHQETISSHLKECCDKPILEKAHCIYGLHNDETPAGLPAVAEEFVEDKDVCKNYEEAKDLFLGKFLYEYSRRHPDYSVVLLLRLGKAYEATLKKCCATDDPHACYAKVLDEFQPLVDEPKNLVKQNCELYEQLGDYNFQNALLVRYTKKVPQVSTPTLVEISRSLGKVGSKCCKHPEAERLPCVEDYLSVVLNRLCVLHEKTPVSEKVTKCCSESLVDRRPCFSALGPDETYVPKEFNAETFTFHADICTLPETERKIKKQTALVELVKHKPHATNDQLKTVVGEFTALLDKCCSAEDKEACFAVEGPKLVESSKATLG

**Q.** Does DTCVDLVRLGLECWG (phage clone selected on rat SA) [RD] bind?
**A.** no binding

**Q.** Does B1 bind?
**A.** no binding

**Q.** Does CGCVDVSDWDCWSECLWSHGA (phage clone selected on rat SA) [RE] bind?
**A.** no binding

**Q.** Does B2 bind?
**A.** no binding

**Q.** Does DLCLRDWGCLW (phage clone selected on rat SA) [RC] bind?
**A.** no binding

**Q.** Does B3 bind?
**A.** no binding

**Q.** Does RNEDPCVVLLEMGLECWEGV (phage clone selected on rat SA) [RA] bind?
**A.** no binding

The binders below were run against T3, human albumin (human, UniProt P02768 25-609) (assay: phage ELISA).
Procedure: as §1, §2

**Q.** Does DTCVDLVRLGLECWG (phage clone selected on rat SA) [RD] bind?
**A.** no binding

**Q.** Does B1 bind?
**A.** binds

**Q.** Does CGCVDVSDWDCWSECLWSHGA (phage clone selected on rat SA) [RE] bind?
**A.** no binding

**Q.** Does B2 bind?
**A.** binds

**Q.** Does DLCLRDWGCLW (phage clone selected on rat SA) [RC] bind?
**A.** no binding

**Q.** Does KSCSELHWLLVEECLF (phage clone selected on rabbit SA) [BD] bind?
**A.** no binding

**Q.** Does B3 bind?
**A.** binds

**Q.** Does MDELAFYCGIWECLMHQEQK (phage clone selected on rabbit SA) [BB] bind?
**A.** no binding

**Q.** Does RNEDPCVVLLEMGLECWEGV (phage clone selected on rat SA) [RA] bind?
**A.** no binding

**Q.** Does DLCDVDFCWF (phage clone selected on rabbit SA) [BC] bind?
**A.** no binding

**Q.** Does GENWCDSTLMAYDLCGQVNM (phage clone selected on rabbit SA) [BA] bind?
**A.** no binding

Molecular target: T1, rat albumin
Assay: phage ELISA
Remark: another data set of the same source
Procedure: as §1

**Q.** Does DSEVCYFPGICWSGT (phage clone, Library HBC) [HBC-H1] bind?
**A.** no binding

Molecular target: T2, rabbit albumin
Assay: phage ELISA
Remark: another data set of the same source
Procedure: as §1

**Q.** Does DTCADLVRLGLECWA (phage clone, Library RD) [RD-R2] bind?
**A.** no binding

**Q.** Does DSEVCYFPGICWSGT (phage clone, Library HBC) [HBC-H1] bind?
**A.** no binding

**Q.** Does EEDLCLPVWGCLWGA (not fully specified (bridges); cysteine pairing not given here, phage clone, Library RBC) [RBC-R14] bind?
**A.** no binding

**Q.** Does RAAESSVCYWPGICFDRTEQ (not fully specified (bridges); cysteine pairing not given here, phage clone, Library HB) [HB-H2] bind?
**A.** no binding

Molecular target: T3, human albumin
Assay: phage ELISA
Remark: another data set of the same source
Procedure: as §1

**Q.** Does DICLPRWGCLW (phage clone, Library RC) [RC-R13] bind?
**A.** no binding

**Q.** Does DTCADLVRLGLECWA (phage clone, Library RD) [RD-R2] bind?
**A.** no binding

**Q.** Does GEDWCDSTLLAFDLCGEGAR (phage clone, Library BA) [BA-B44] bind?
**A.** no binding

**Q.** Does EEDLCLPVWGCLWGA (not fully specified (bridges); cysteine pairing not given here, phage clone, Library RBC) [RBC-R14] bind?
**A.** no binding

The binders below were run against T1, rat albumin (assay: phage ELISA, photograph of the plate).

**Q.** Does GEDWCDSTLLAFDLCGEGAR (phage clone, Library BA) [BA-B44] bind?
**A.** no binding

**Q.** Does MELWCDSTLMAYDLCGDFNM (phage clone, Library BA) [BA-B39] bind?
**A.** no binding

**Q.** Does GENWCDWVLLAYDLCGEDNT (phage clone, Library BA) [BA-B37] bind?
**A.** no binding

**Q.** Does RAAESSVCYWPGICFDRTEQ (not fully specified (bridges); cysteine pairing not given here, phage clone, Library HB) [HB-H2] bind?
**A.** no binding

Each binder was assayed against T3, human albumin (assay: phage ELISA, photograph of the plate).

**Q.** Does MELWCDSTLMAYDLCGDFNM (phage clone, Library BA) [BA-B39] bind?
**A.** no binding

**Q.** Does GENWCDWVLLAYDLCGEDNT (phage clone, Library BA) [BA-B37] bind?
**A.** no binding

The binders below were run against rhesus albumin (rhesus, UniProt Q28522 17-600) (assay: phage ELISA, photograph of the plate).
Chain of rhesus albumin (Q28522 17-600 limits assumed): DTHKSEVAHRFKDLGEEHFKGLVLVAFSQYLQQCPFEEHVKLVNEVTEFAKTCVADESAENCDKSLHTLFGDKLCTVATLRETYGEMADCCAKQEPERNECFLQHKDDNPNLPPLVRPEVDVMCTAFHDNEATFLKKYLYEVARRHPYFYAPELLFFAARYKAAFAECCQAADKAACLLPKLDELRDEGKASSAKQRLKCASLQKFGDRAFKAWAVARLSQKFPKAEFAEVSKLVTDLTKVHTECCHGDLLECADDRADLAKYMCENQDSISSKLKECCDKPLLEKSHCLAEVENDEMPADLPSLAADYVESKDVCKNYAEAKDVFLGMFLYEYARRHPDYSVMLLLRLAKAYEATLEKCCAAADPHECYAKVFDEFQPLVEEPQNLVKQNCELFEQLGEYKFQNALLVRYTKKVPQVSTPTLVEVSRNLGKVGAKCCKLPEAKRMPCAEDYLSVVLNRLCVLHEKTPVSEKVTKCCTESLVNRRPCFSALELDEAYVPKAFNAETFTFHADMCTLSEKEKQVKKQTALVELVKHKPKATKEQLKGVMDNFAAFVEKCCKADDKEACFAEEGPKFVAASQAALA

**Q.** Does GEDWCDSTLLAFDLCGEGAR (phage clone, Library BA) [BA-B44] bind?
**A.** no binding

**Q.** Does MELWCDSTLMAYDLCGDFNM (phage clone, Library BA) [BA-B39] bind?
**A.** no binding

**Q.** Does GENWCDWVLLAYDLCGEDNT (phage clone, Library BA) [BA-B37] bind?
**A.** no binding

Each binder was assayed against T4, mouse albumin (mouse, UniProt P07724 25-608) (assay: phage ELISA, photograph of the plate).
T4 sequence (P07724 25-608 limits assumed): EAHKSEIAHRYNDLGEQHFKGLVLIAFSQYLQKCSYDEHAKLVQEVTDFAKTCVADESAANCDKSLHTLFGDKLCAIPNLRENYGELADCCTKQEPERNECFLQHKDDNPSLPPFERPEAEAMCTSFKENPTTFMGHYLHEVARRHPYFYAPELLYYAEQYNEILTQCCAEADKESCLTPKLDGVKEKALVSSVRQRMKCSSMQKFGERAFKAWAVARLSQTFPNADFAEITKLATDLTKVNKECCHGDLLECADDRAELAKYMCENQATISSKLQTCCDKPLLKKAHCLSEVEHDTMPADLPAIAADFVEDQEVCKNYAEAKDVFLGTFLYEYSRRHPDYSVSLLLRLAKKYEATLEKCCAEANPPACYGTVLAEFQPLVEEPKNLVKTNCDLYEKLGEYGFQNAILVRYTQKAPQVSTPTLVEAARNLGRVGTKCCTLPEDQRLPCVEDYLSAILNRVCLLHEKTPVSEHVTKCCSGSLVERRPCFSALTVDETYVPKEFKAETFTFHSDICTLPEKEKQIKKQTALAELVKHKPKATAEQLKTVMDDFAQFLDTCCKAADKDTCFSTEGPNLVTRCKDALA

**Q.** Does GEDWCDSTLLAFDLCGEGAR (phage clone, Library BA) [BA-B44] bind?
**A.** no binding

**Q.** Does MELWCDSTLMAYDLCGDFNM (phage clone, Library BA) [BA-B39] bind?
**A.** no binding

**Q.** Does GENWCDWVLLAYDLCGEDNT (phage clone, Library BA) [BA-B37] bind?
**A.** no binding

**Q.** Does RAAESSVCYWPGICFDRTEQ (not fully specified (bridges); cysteine pairing not given here, phage clone, Library HB) [HB-H2] bind?
**A.** no binding

Each binder was assayed against bovine albumin (bovine, UniProt P02769 25-607) (assay: phage ELISA, photograph of the plate).
Chain of bovine albumin (P02769 25-607 limits assumed): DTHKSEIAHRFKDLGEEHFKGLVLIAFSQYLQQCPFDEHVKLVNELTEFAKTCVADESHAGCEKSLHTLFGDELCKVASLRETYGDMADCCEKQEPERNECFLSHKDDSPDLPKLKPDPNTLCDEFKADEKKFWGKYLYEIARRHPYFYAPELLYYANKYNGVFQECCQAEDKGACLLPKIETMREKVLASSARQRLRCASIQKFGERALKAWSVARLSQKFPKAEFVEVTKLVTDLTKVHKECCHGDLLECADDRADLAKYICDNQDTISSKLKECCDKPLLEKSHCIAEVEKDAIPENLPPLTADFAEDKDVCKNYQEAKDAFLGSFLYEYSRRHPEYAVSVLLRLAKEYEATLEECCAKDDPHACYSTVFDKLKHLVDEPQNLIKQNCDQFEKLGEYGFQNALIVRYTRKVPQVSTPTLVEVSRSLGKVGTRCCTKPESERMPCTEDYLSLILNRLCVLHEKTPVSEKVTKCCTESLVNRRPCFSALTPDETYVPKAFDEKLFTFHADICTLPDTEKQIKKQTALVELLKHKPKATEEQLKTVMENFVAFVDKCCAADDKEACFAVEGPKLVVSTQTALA

**Q.** Does DICLPRWGCLW (phage clone, Library RC) [RC-R13] bind?
**A.** no binding

**Q.** Does GEDWCDSTLLAFDLCGEGAR (phage clone, Library BA) [BA-B44] bind?
**A.** no binding

**Q.** Does EEDLCLPVWGCLWGA (not fully specified (bridges); cysteine pairing not given here, phage clone, Library RBC) [RBC-R14] bind?
**A.** no binding

The binders below were run against T5, ovalbumin (UniProt P01012 2-386) (assay: phage ELISA, photograph of the plate).
T5 sequence (looked up): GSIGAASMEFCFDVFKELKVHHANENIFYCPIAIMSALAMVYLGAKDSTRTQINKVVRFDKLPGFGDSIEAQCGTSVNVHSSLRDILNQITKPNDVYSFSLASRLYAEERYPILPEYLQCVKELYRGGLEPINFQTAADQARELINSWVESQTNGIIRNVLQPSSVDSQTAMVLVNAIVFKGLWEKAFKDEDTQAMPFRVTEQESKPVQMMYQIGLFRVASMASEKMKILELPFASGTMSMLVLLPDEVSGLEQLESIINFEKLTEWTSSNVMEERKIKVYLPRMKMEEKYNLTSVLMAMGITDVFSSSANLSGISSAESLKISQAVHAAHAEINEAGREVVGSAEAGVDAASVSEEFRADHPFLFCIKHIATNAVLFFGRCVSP

**Q.** Does DICLPRWGCLW (phage clone, Library RC) [RC-R13] bind?
**A.** no binding

**Q.** Does DTCADLVRLGLECWA (phage clone, Library RD) [RD-R2] bind?
**A.** no binding

**Q.** Does GEDWCDSTLLAFDLCGEGAR (phage clone, Library BA) [BA-B44] bind?
**A.** no binding

**Q.** Does DSEVCYFPGICWSGT (phage clone, Library HBC) [HBC-H1] bind?
**A.** no binding

**Q.** Does MELWCDSTLMAYDLCGDFNM (phage clone, Library BA) [BA-B39] bind?
**A.** no binding

**Q.** Does EEDLCLPVWGCLWGA (not fully specified (bridges); cysteine pairing not given here, phage clone, Library RBC) [RBC-R14] bind?
**A.** no binding

**Q.** Does GENWCDWVLLAYDLCGEDNT (phage clone, Library BA) [BA-B37] bind?
**A.** no binding

**Q.** Does RAAESSVCYWPGICFDRTEQ (not fully specified (bridges); cysteine pairing not given here, phage clone, Library HB) [HB-H2] bind?
**A.** no binding

These binders were tested against T1, rat albumin (assay: SA08b binding assay: competition with biotinylated SA08b for immobilized albumin).
Procedure: (§3) Plates were blocked using Blocker Casein (Pierce Chemical, Rockford, Ill.) for 1 hr, at 25° C. […] The amount of HRP bound was measured using ABTS/H₂O₂ substrate and monitoring the change at 405 nm.

**Q.** B4 was tested. Which IC50 did it give?
**A.** 787 nM

**Q.** How did the IC50 turn out when B5 was run?
**A.** 35 nM

**Q.** Which IC50 does the source give for B6 here?
**A.** 232 nM

**Q.** With B7 as the binder, how does the IC50 read?
**A.** 258 nM

**Q.** With B8 as the binder, how does the IC50 read?
**A.** 161 nM

**Q.** For B9, which IC50 is on record?
**A.** 205 nM

The binders below were run against T2, rabbit albumin in the same assay as above.
Procedure: as §3

**Q.** For B4, which IC50 is on record?
**A.** 8540 nM

**Q.** With B5 as the binder, how does the IC50 read?
**A.** 30 nM

**Q.** With B6 as the binder, how does the IC50 read?
**A.** 1210 nM

**Q.** For B7, which IC50 is on record?
**A.** 1690 nM

**Q.** With B8 as the binder, how does the IC50 read?
**A.** 804 nM

**Q.** For B9, which IC50 is on record?
**A.** 1760 nM

These binders were tested against T4, mouse albumin in the same assay as above.
Procedure: as §3

**Q.** Which IC50 does the source give for B4 here?
**A.** 40 nM

**Q.** B5 was tested. Which IC50 did it give?
**A.** 6 nM

**Q.** How did the IC50 turn out when B6 was run?
**A.** 17 nM

**Q.** For B7, which IC50 is on record?
**A.** 6 nM

**Q.** How did the IC50 turn out when B8 was run?
**A.** 6 nM

**Q.** With B9 as the binder, how does the IC50 read?
**A.** 13 nM

Reference: patent publication US20040253247A1 (Genentech, published 2004)
